This data set can be described thus: yeast display, Sf9 membrane polyspecificity reagent, FACS + sequencing; frameworks hold sequencing errors. An outline of the steps: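 Galactose induction of a Saccharomyces cerevisiae BJ5465 synthetic nanobody display library ran 36–48 hours. The cells were then stained for 1 hour at 4 °C with 10% biotinylated, detergent-solubilized Sf9 membrane reagent, pulled down on streptavidin microbeads and FACS-sorted into low and high (top ~1%) gates on expression and reagent-binding fluorescence. Labels for polyreactivity follow the gate of origin.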
Turning to “QVQLVESGGCLVQAGGSLRLSCAATGIIFDGYAMGWYRQAPGKERELVAAISWSGGSTYYADSVKGRFTISRDNAKNTVYLQMNSLKPEDTAVYYCAAALPGWYHDDYDYWGQGTQVTVSS”, the “polyreactivity (PSR sort gate)” value is given as “low polyreactivity”.

For “QVQLVESGGCLVQAGGSLRLSCAATGRIFKRYVMGWYRQAPGKERELVAAISQRGGSTNYADSVKGRFTISRDNAKNTVYLQMNSLKPEDTAVYYCAAGFFSRYDYWGQGTQVTVSS”, the “polyreactivity (PSR sort gate)” value is “high polyreactivity”.

Take “QVQLVESGGCLVQAGGSLRLSCCASARTFWYYTMGWYRQAPGKERELVASISRVTSTYYADSVKGRLTSSRDNAKNTVYLQMNSLKPEDTAVYYCAGLQIRRSYWRTFYWGQGTQVTVSS”: the “polyreactivity (PSR sort gate)” value is on record as “low polyreactivity”.

“QVQLVESGGCLVQAGGSLRLSCYASGIIFAWYAMGWYRQAPGKERQLVAAISYSGCTTYYADSVKWRFTISRDNAKNTVYFKMNSLKPVDTAVYYCAALLHHFFTYDYWGQGTQVTVSS”: the “polyreactivity (PSR sort gate)” value was “low polyreactivity”.

Turning to “QVQLVESGGCLVQAGGSLRLSCYASGSIFVDKAMGWFRQPPGKERELVAAITDSGGRTYYADSVKGRFTISRDNAKNTVYLQKNSLKPEDTAVYYCAAGQSGYAGRRPAFGSWGQGTQVTVSS”, the “polyreactivity (PSR sort gate)” value is “low polyreactivity”.

For “QVQLVESGGCLVQAGGSLRLSSAASGFIFSRYAMGWYRQATGKERELVASISWGGGSTSYADSVKGRFTISRDNAKYTVYLQMNSLKPEDTAVYYCNARVRSHRFNYWGQGTQVTVSS”, the “polyreactivity (PSR sort gate)” value is recorded as “high polyreactivity”.

For the sequence “QVQLVESGGCLVQAGGSLSLSCAASGSTFVAYAMGWYRQAPGKESELVAAISKSGVRTYYADYVKGRFTISRDNAKNTVYLQMNSLKPEDSAFYYCAALTYYSQVTSSVSLQQYGYWGQVTQVTVSS”, the “polyreactivity (PSR sort gate)” value was “low polyreactivity”.

Consider “QVQLVESGGCLVQAGVSLRLSCAASGRIFAYYAMGWYRQAPRKERELVAAISRSGVSTYYADSVKGRFTISRDNAKNTVYIQMNSLKPEDTAVYYCAARWRSGFTSGDYWGQGTQVTVSS”, for which the “polyreactivity (PSR sort gate)” value is listed as “low polyreactivity”.

In the case of “QVQLVESGGCLVQEGGSLRLSCAASGRIININAMGWSRHAPGKEREMVAAITWRSGSTYYADSVKGRFTISRDNAKNTVYLQLNSLKPEDTAVYFCAADFSQTRRPIRFYYWGQGTQVTVSS”, the “polyreactivity (PSR sort gate)” value is “high polyreactivity”.

Take “QVQLVESGGDLVQAGGSLRLSCAASGGIFQKYVMGWYRQAPGKERELVARITSVGSTYYADSVKGRFTISRDNAKNTVYLQMNSLKPVDTAVYYCNAELYRRSQGYRFTAFDYWGQGTQVTVSS”: the “polyreactivity (PSR sort gate)” value is “low polyreactivity”.

In the case of “QVQLVESGGDLVQAGGSLRLSCAASGYTFIVKAMGWYRQAPGKERELVAGISYRGGRTFYADSVKGRFTISRDNAKNNVYLQMNSLKPEDTAVYYCAARKTGIPFYNYDYWGQGTQVTVSS”, the “polyreactivity (PSR sort gate)” value is “low polyreactivity”.

Take “QVQLVESGGGEVQAGGSLRLSCAASGIIFVDYVLGWYRQAPGTEMELVASIDGSGGSTNDADSVKGRFTISRDNAKNTVYLQLNRLKPEDTAVYYCTADNILYWSTLDYWGQGTHVTVSS”: the “polyreactivity (PSR sort gate)” value is listed as “low polyreactivity”.

With “QVQLVESGGGFGQAGGSLRLSCAASGLIFRWYAMGWYRQAPGKERELVAAISWSGASTYYADSVKGRFTISRDNAKNTVYLQMNSLKPEDTAVYYCAADSAYWTYEYWGQGTQVTVSS”, the “polyreactivity (PSR sort gate)” value is “high polyreactivity”.

With “QVQLVESGGGFVQAGGSLRLSCAASGFIFWLNAMGWYRQAPGKERELVAASSIGGRTNYADSVKGRFTISRDNAKNTVYLQMNSLTPEDTAVYFCNNDYRSVYKGRGFDYWGQGTQVTVSS”, the “polyreactivity (PSR sort gate)” value is recorded as “low polyreactivity”.

In the case of “QVQLVESGGGFVQAGGSLRLSCAASGFIFYMFAMGWYRQAPGKERELVAAITSRGGSTFYADSVKGRFTISRDNAKNTVYLQMNSLKPEDTAVYYCAAVRDLYTYRLGYWGQGTQVTVSS”, the “polyreactivity (PSR sort gate)” value was “high polyreactivity”.

Regarding “QVQLVESGGGFVQAGGSLRLSCAASGFTFGYYTMGWYRQAPGKERELVAAITYRGGRTYYADSVKGRFTISRDNAKNTVYLQLNSLKPEATAVYYGAARLLGKTGRTDSGAEGDYWGQGTQVTVSS”, the “polyreactivity (PSR sort gate)” value is “high polyreactivity”.

As to “QVQLVESGGGFVQAGGSLRLSCAASGFTFYKYAMGWYRQAPGQERELVAAITRGGGSTYYADSVKGRFTISRDHAQNPVYLQKNRLIPEDPAVYYCNVLYGYGTDVSRVDYWGQGTQVTVSS”, the “polyreactivity (PSR sort gate)” value is given as “high polyreactivity”.

As for “QVQLVESGGGFVQAGGSLRLSCAASGITFYSNAMGWYRQAPGKERELGAAISTTGGRTYYADSVKRRFTISRDNAKNTVYLHMNSLKPEDTAVYYCTKAWGRGSLTEPYDYWGQGTQVTVSS”, the “polyreactivity (PSR sort gate)” value is reported as “high polyreactivity”.

Regarding “QVQLVESGGGFVQAGGSLRLSCAASGRICGYYAMGWFRQAPGKERELVAAISSSGGSTYYADSVKGRFTISRDTAKNTVYLQINSQKPEYTAVYYCNVDWYDNGYGGYDYWRQGTQVTVSS”, the “polyreactivity (PSR sort gate)” value is given as “low polyreactivity”.

For the sequence “QVQLVESGGGFVQAGGSLRLSCAASGRIFGPYAMGWYRQAPGKERELVAVITNSGSTNYADSVKGRFTISRDNAKNTVYLQMNSLKPEDTAVYYCNRVEGGAYGSNFDYWGQVTQVTVSS”, the “polyreactivity (PSR sort gate)” value is recorded as “high polyreactivity”.

“QVQLVESGGGFVQAGGSLRLSCAASGRIFKWYAMGWYIQAPGKERELVAAITSGGSTYYADSVKGRFTISRDNAKNTVYLQMNSLKPEDTAVYYCNTALTRWYNQYDYWGQGTLVTVSS”: the “polyreactivity (PSR sort gate)” value is reported as “high polyreactivity”.

Take “QVQLVESGGGFVQAGGSLRLSCAASGRIFRTNAMGWYRQAPGKERELVAAITSSGTRTYYADSVKGRFTISRDNAKNTVYLQMNSLKPEDTAVYYCAAGGGHSMYYWGQGTQVTVSS”: the “polyreactivity (PSR sort gate)” value is recorded as “high polyreactivity”.

For the sequence “QVQLVESGGGFVQAGGSLRLSCAASGRTIPYYAMGWYRQARGKEWELVATISTGDSTYYADSVKGRFTISRDNAKNTLYLQMNSLKPEATAVYSCAKDRYTYWSVHAFRRLDYWGKGTQVTVSS”, the “polyreactivity (PSR sort gate)” value is on record as “low polyreactivity”.

For “QVQLVESGGGFVQAGGSLRLSCAASGSIFYLYAMGWYRQAPGKERELVAAITSIGGSTYADSVKGRFTISRDNAKYTVYLQMNSLKPEDTAVYYCATYVAYHRGYRTYDQWGQGTQVTVSS”, the “polyreactivity (PSR sort gate)” value is “low polyreactivity”.

Regarding “QVQLVESGGGFVQAGGSLRLSCAASGSTCDGYSMGWYRQAPGKERELVAGISTSGGSTYYADSVKGRFTISRDNAKNTVYLQMNSLKPEDTAVYYCAAEWFDQVKDRAADYISYEYWGQGTQVTVSS”, the “polyreactivity (PSR sort gate)” value is reported as “low polyreactivity”.

“QVQLVESGGGFVQAGGSLRLSCAASGSTFDGYAMGWYRQAPGKERELVAAITSSDGSTYYADSVKGRFTISRDNAKNTVYLQMNSLKPEDTAGYSCAAAPDWKDSLPPDMDYWGQGTQVTVSS”: the “polyreactivity (PSR sort gate)” value is listed as “low polyreactivity”.

For the sequence “QVQLVESGGGFVQAGGSLRLSCAASGSTFDYNTMGWYRQAPGKERELVAAISESGGSTYYADSVKGRFTISRDNAKNTVYLQMNSLKPEDTAVYYCAADTIGYHYWYDYWGQGTQVTVSS”, the “polyreactivity (PSR sort gate)” value is recorded as “low polyreactivity”.

On to “QVQLVESGGGFVQAGGSLRLSCAASGSTFSYYAMGWYRQAPGKERELVAAINWRGTNTYYADSVKGRFTISRDNAKNTVYLQMNSLKPEDTAVYYCNKESYRSSSPYNYWGQGTQVTVSS”, for which the “polyreactivity (PSR sort gate)” value is recorded as “high polyreactivity”.

Turning to “QVQLVESGGGFVQAGGSLRLSSAASGINFYRKTMGWYRQAPGKERELVASISRGGSTYYADSVKGRFTISRDNAKNTVYLQMNILKPEDTAVYYCSTSGQQYYSRNFDYWGQGTQVTVSS”, the “polyreactivity (PSR sort gate)” value was “low polyreactivity”.

On to “QVQLVESGGGFVQSGGSLRLSCAASGITFRYYTMGWYRQPPRKERELDAVISWSGGSTYYADSVKGRFTISRDNAKNTVYLQRNSLKPEDTAVYYCAAVRRISRYDYWGQGTQVTVSS”, for which the “polyreactivity (PSR sort gate)” value was “high polyreactivity”.

In the case of “QVQLVESGGGIDQAGGSLRLSCAASGGTFFSNAMGWYRQAPGKERELVAGITSGGRTYYADSVKGRFTISRDNAKNTVYLQMNSLKPEDTAVDYCATRSRRTYYYYGAEGYWGQGTQVTVSS”, the “polyreactivity (PSR sort gate)” value is listed as “high polyreactivity”.

For “QVQLVESGGGILQAGGSLRLSCAASGFTFLGYVMGWYRQSPGKEREIVADITESGGRTYYADSVKGRFTISRDNAKNTVFLQMNSLKPEDTAVYYCAAELSYWGYYYSFDYWGHGTQVTVSS”, the “polyreactivity (PSR sort gate)” value is “low polyreactivity”.

Take “QVQLVESGGGIVPAGGSLRLSCAASGRSFYNYAMGWYRQAPGKERELVASISGIGGTTYYADSVKGRFTISRDNAKNTVYFQMNSLKPEDTAVYYCAARLYNWRRYGYWGQRTQVTVSS”: the “polyreactivity (PSR sort gate)” value is reported as “high polyreactivity”.

On to “QVQLVESGGGIVQAGGSLLLSCAASGRIFEKYALGWYRQAPGKDRELVAAISYSGGSTYYADSVKGSFTSSRDKAKNTVYFQMNSLKPEDTAVYYCARYSRTQAYDYWGQGTQVTVSS”, for which the “polyreactivity (PSR sort gate)” value is reported as “high polyreactivity”.

On to “QVQLVESGGGIVQAGGSLRFSCAASGFTFWKYTRGWYRQAPGKERELVAAINGGGGDTYADSVKGRFTISRDNAKNTVYLQMNSLKPEDTAVYYCAARYGTGTTWVQPTEMDYWGQGTQVTVSL”, for which the “polyreactivity (PSR sort gate)” value is “low polyreactivity”.

In the case of “QVQLVESGGGIVQAGGSLRISCAASGRIFSTYAMGWYRQAPGKERELVAAINKIGGSTYYADSVKGRFTISRDNAKNTVYLQMNSLKPEDTAVYYCAADAPYYPVRRYYYWGQGTQVTVSS”, the “polyreactivity (PSR sort gate)” value is listed as “low polyreactivity”.

Consider “QVQLVESGGGIVQAGGSLRLAVLPPDLPSTLNDMGWSTQAPGKERELVAAITRGGSTNSADSVKGRFTISRDNAKNTVYLQMNILKPEDTAVYYCDKDSLVDHVGGYDYWGQATQVTVSS”, for which the “polyreactivity (PSR sort gate)” value was “low polyreactivity”.

For “QVQLVESGGGIVQAGGSLRLCCAASGRSFSHYAMGWSRQAPGKDRELVATITRNGGITYYADSVKWRFTISRDNAKNTVYLQMNSLKPEDTAVYYCAAGRYYNLRATHGYWGQATQVTVSS”, the “polyreactivity (PSR sort gate)” value was “low polyreactivity”.

“QVQLVESGGGIVQAGGSLRLICAASGSTFYPYAMGWYRQAPGKERELVAGISWSGGSTYYADSVKGRFTISRDNAKYTVYLQMNSLKPEDTAVYYCAVDVYWSVIYDYWGQGTQVTVSS”: the “polyreactivity (PSR sort gate)” value was “low polyreactivity”.

Consider “QVQLVESGGGIVQAGGSLRLNSAASGITINGNAMGWYRQEPGKERQLVAAISRSSSRTYYADSVKGRFTISRDNAKNTVYLQKNSLKQEDTAVYYCAALSLNVDAPSYGYWGQGTQVTVSS”, for which the “polyreactivity (PSR sort gate)” value is recorded as “high polyreactivity”.

As for “QVQLVESGGGIVQAGGSLRLSCAAAGSNFTVYVMGWYRQAPGKERELVARISSDGSTNYADSVKGRFTISRDNAKNSVFLQMNSLKPEDTAVYYCNADFPFSGRRPWYNAYDYWGQGTQVTVSS”, the “polyreactivity (PSR sort gate)” value is “low polyreactivity”.

The values above are taken from the nanobody polyreactivity screen of Harvey et al. (2022).
